Measured values from article PMC12058022, “Promiscuous structural cross-compatibilities between major shell components of Klebsiella pneumoniae bacterial microcompartments” (PLOS One, 2025).

Columns and labels:
Assay in all cases: SEC; SEC-HPLC of purified individual His6-tagged BMC-H (urea-purified fractions; EutM, CmcB and EutK also from the soluble fraction), Beckman Ultraspherogel SEC2000, 20 mM Tris-HCl, 300 mM NaCl, pH 7; size from calibration standards
[1] = biological target: CmcA, His6-tagged (Klebsiella pneumoniae (strain 342))
[2] = biological target: CmcC, His6-tagged (Klebsiella pneumoniae (strain 342))
[3] = biological target: CmcE, N-terminally His6-tagged (Klebsiella pneumoniae (strain 342))
[4] = biological target: CmcB, His6-tagged (Klebsiella pneumoniae (strain 342))
[5] = biological target: EutM, His6-tagged (Klebsiella pneumoniae (strain 342))
[6] = biological target: CmcE, C-terminally His6-tagged (Klebsiella pneumoniae (strain 342))
[7] = biological target: EutS, His6-tagged (Klebsiella pneumoniae (strain 342))
[8] = biological target: PduU, N-terminally His6-tagged (Klebsiella pneumoniae (strain 342)) (UniProt A6TDE7)
[9] = biological target: the molecule itself

CmcA, His6-tagged (natural protein) showed a stoichiometry N [1] of 6.

CmcC, His6-tagged (natural protein) was tested, and the stoichiometry N [2] was 6.

With “CmcE, N-terminally His6-tagged (natural protein)” the stoichiometry N [3] was 6.

CmcB, His6-tagged (natural protein) showed a stoichiometry N [4] of 6.

“EutM, His6-tagged (from UniProt A0A377ZA59 1-64) (natural protein)” gave a stoichiometry N [5] of 6.

“CmcE, C-terminally His6-tagged (natural protein)” was tested, and the stoichiometry N [6] was 6.

Work on EutS, His6-tagged (natural protein) yielded a stoichiometry N [7] of 6.

Work on “PduU, N-terminally His6-tagged (from UniProt A6TDE7 1-116) (natural protein)” yielded a stoichiometry N [8] of 6.

B1: PduJ, His6-tagged (natural protein, Klebsiella pneumoniae (strain 342), UniProt A6TDD7 1-91, looked up)
chain: MNNALGLVETKGLVGAIEAADAMVKSANVQLIGYEKIGSGLITVMVRGDVGAVKAAVDAGSAAASVVGEVKSSHVIPRPHSDVEAILPKSV
notes: PduJ, canonical BMC-H shell protein of the PDU microcompartment; theoretical monomer MW 9.2 kDa; not shown: His6, C-terminal, kept
For B1, the “stoichiometry N” value [9] was 6.

B2: PduA, His6-tagged (natural protein, Klebsiella pneumoniae (strain 342), UniProt A0ACD7U6D6 1-94, looked up)
chain: MQQEALGMVETKGLTAAIEAADAMVKSANVLLVGYERIGSGLVTVIVRGDVGAVKAATDAGAAAARHVGEVKAVHVIPRPHTDVEKILPKGNSQ
notes: PduA, canonical BMC-H shell protein of the PDU microcompartment; theoretical monomer MW 9.8 kDa; source: also co-expressed with a FLAG-tagged partner, in soluble lysate fraction and co-purified; not shown: His6, C-terminal, kept
With B2 the “stoichiometry N” value [9] was 6.
